# Data from publication PMC4906247 (2016).
# B1: WT hDAPK2 expressed in HEK293T cells (CaM pull-down from lysate) [human] / calcium/calmodulin on Sepharose 4B (Sepharose 4B-CaM) [not stated] (parent complex)
# chain 1: MFQASMRSPNMEPFKQQKVEDFYDIGEELGSGQFAIVKKCREKSTGLEYAAKFIKKRQSRASRRGVSREEIEREVSILRQVLHHNVITLHDVYENRTDVVLILELVSGGELFDFLAQKESLSEEEATSFIKQILDGVNYLHTKKIAHFDLKPENIMLLDKNIPIPHIKLIDFGLAHEIEDGVEFKNIFGTPEFVAPEIVNYEPLGLEADMWSIGVITYILLSGASPFLGDTKQETLANITAVSYDFDEEFFSQTSELAKDFIRKLLVKETRKRLTIQEALRHPWITPVDNQQAMVRRESVVNLENFRKQYVRRRWKLSFSIVSLCNHLTRSLMKKVHLRPDEDLRNCESDTEEDIARRKALHPRRRSSTS
# chain 2: not shown
# Variants of: B1
# Assay: CaM pull-down from HEK293T cell lysate, western blot; HEK293T transfected cells; EGTA-mediated elution on Sepharose 4B-CaM; read off a plot
row,response,Variant
1,~0.42 relative unit (normalized to W305D),"chain 1 R57E, chain 1 R60E, chain 1 R63E, chain 1 R64E, chain 1 W315D"
2,~1 relative unit (normalized to W305D),chain 1 W315D
